Assay results reported in the MegaScale stability set (Tsuboyama et al. 2023).

B1: EEHEE_rd4_0003 (parent)
chain: KKVTINGVEIKFNNPEEAVKFALELAKRLNLRIEFHGDQIKIE

Variants of: B1
Assay: folding stability dG (cDNA display proteolysis); higher = more stable
Settings: PBS, room temperature

First: KKVTINGVEIKFNNPEEAVKFALELAKWLNLRIEFHGDQIKIE [R28W]
Second: KKVTINGVEIKFNNPEEAVKFALELAKGLNLRIEFHGDQIKIE [R28G]
The “folding stability dG” value of the first is higher: 2.68 kcal/mol for the first, 1.91 kcal/mol for the second.

Going from KKVTINGVEIKFNNPEEAVKFALELAKVLNLRIEFHGDQIKIE [R28V] to KKVTINGVEIKFNNPEEAVKFALELAKPLNLRIEFHGDQIKIE [R28P], the “folding stability dG” value falls from 2.36 kcal/mol to 1.29 kcal/mol.

First: KKVTINGVEIKFNNPEEAVKFALELAKKLNLRIEFHGDQIKIE [R28K]
Second: KKVTINGVEIKFNNPEEAVKFALELAKQLNLRIEFHGDQIKIE [R28Q]
The “folding stability dG” value of the first is higher: 2.33 kcal/mol for the first, 2.21 kcal/mol for the second.

Compared with KKVTINGVEIKFNNPEEAVKFALELAKELNLRIEFHGDQIKIE [R28E], KKVTINGVEIKFNNPEEAVKFALELAKFLNLRIEFHGDQIKIE [R28F] is higher in “folding stability dG” value: 2.08 kcal/mol for the first, 2.5 kcal/mol for the second.

First: KKVTINGVEIKFNNPEEAVKFALELAKTLNLRIEFHGDQIKIE [R28T]
Second: KKVTINGVEIKFNNPEEAVKFALELAKMLNLRIEFHGDQIKIE [R28M]
The “folding stability dG” value of the first is lower: 2.2 kcal/mol for the first, 2.5 kcal/mol for the second.

First: KKVTINGVEIKFNNPEEAVKFALELAKCLNLRIEFHGDQIKIE [R28C]
Second: KKVTINGVEIKFNNPEEAVKFALELAKHLNLRIEFHGDQIKIE [R28H]
The “folding stability dG” value of the first is higher: 3.28 kcal/mol for the first, 2.22 kcal/mol for the second.

Going from KKVTINGVEIKFNNPEEAVKFALELAKLLNLRIEFHGDQIKIE [R28L] to KKVTINGVEIKFNNPEEAVKFALELAKALNLRIEFHGDQIKIE [R28A], the “folding stability dG” value falls from 2.57 kcal/mol to 2.39 kcal/mol.

Compared with KKVTINGVEIKFNNPEEAVKFALELAKILNLRIEFHGDQIKIE [R28I], KKVTINGVEIKFNNPEEAVKFALELAKNLNLRIEFHGDQIKIE [R28N] is lower in “folding stability dG” value: 2.54 kcal/mol for the first, 1.99 kcal/mol for the second.

First: KKVTINGVEIKFNNPEEAVKFALELAKSLNLRIEFHGDQIKIE [R28S]
Second: KKVTINGVEIKFNNPEEAVKFALELAKDLNLRIEFHGDQIKIE [R28D]
The “folding stability dG” value of the first is higher: 2.35 kcal/mol for the first, 1.69 kcal/mol for the second.

Going from KKVTINGVEIKFNNPEEAVKFALELAKYLNLRIEFHGDQIKIE [R28Y] to KKVTINGVEIKFNNPEEAVKFALYLAKRLNLRIEFHGDQIKIE [E24Y], the “folding stability dG” value rises from 2.63 kcal/mol to 2.73 kcal/mol.

First: KKVTINGVEIKFNNPEEAVKFALELPKRLNLRIEFHGDQIKIE [A26P]
Second: KKVTINGVEIKFNNPEEAVKFALELVKRLNLRIEFHGDQIKIE [A26V]
The “folding stability dG” value of the first is lower: 1.19 kcal/mol for the first, 2.26 kcal/mol for the second.

Compared with KKVTINGVEIKFNNPEEAVKFALELKKRLNLRIEFHGDQIKIE [A26K], KKVTINGVEIKFNNPEEAVKFALELCKRLNLRIEFHGDQIKIE [A26C] is higher in “folding stability dG” value: 1.66 kcal/mol for the first, 2.98 kcal/mol for the second.

Compared with KKVTINGVEIKFNNPEEAVKFALELHKRLNLRIEFHGDQIKIE [A26H], KKVTINGVEIKFNNPEEAVKFALELIKRLNLRIEFHGDQIKIE [A26I] is higher in “folding stability dG” value: 1.47 kcal/mol for the first, 2.3 kcal/mol for the second.

First: KKVTINGVEIKFNNPEEAVKFALELTKRLNLRIEFHGDQIKIE [A26T]
Second: KKVTINGVEIKFNNPEEAVKFALELSKRLNLRIEFHGDQIKIE [A26S]
The “folding stability dG” value of the first is lower: 1.92 kcal/mol for the first, 2.23 kcal/mol for the second.

Going from KKVTINGVEIKFNNPEEAVKFALELEKRLNLRIEFHGDQIKIE [A26E] to KKVTINGVEIKFNNPEEAVKFALELYKRLNLRIEFHGDQIKIE [A26Y], the “folding stability dG” value rises from 1.33 kcal/mol to 2.29 kcal/mol.

Compared with KKVTINGVEIKFNNPEEAVKFALELWKRLNLRIEFHGDQIKIE [A26W], KKVTINGVEIKFNNPEEAVKFALELDKRLNLRIEFHGDQIKIE [A26D] is lower in “folding stability dG” value: 2.14 kcal/mol for the first, 0.982 kcal/mol for the second.

First: KKVTINGVEIKFNNPEEAVKFALELRKRLNLRIEFHGDQIKIE [A26R]
Second: KKVTINGVEIKFNNPEEAVKFALELQKRLNLRIEFHGDQIKIE [A26Q]
The “folding stability dG” value of the first is lower: 1.73 kcal/mol for the first, 1.78 kcal/mol for the second.

Going from KKVTINGVEIKFNNPEEAVKFALELMKRLNLRIEFHGDQIKIE [A26M] to KKVTINGVEIKFNNPEEAVKFALELLKRLNLRIEFHGDQIKIE [A26L], the “folding stability dG” value rises from 2.37 kcal/mol to 2.52 kcal/mol.

Compared with KKVTINGVEIKFNNPEEAVKFALELGKRLNLRIEFHGDQIKIE [A26G], KKVTINGVEIKFNNPEEAVKFALELFKRLNLRIEFHGDQIKIE [A26F] is higher in “folding stability dG” value: 1.91 kcal/mol for the first, 2.56 kcal/mol for the second.

First: KKVTINGVEIKFNNPEEAVKFALELNKRLNLRIEFHGDQIKIE [A26N]
Second: KKVTINGVEIKFNNPEEAVKFALELAKRENLRIEFHGDQIKIE [L29E]
The “folding stability dG” value of the first is lower: 1.43 kcal/mol for the first, 1.66 kcal/mol for the second.

First: KKVTINGVEIKFNNPEEAVKFALELAKRVNLRIEFHGDQIKIE [L29V]
Second: KKVTINGVEIKFNNPEEAVKFALELAKRGNLRIEFHGDQIKIE [L29G]
The “folding stability dG” value of the first is lower: 1.77 kcal/mol for the first, 1.88 kcal/mol for the second.

First: KKVTINGVEIKFNNPEEAVKFALELAKRHNLRIEFHGDQIKIE [L29H]
Second: KKVTINGVEIKFNNPEEAVKFALELAKRRNLRIEFHGDQIKIE [L29R]
The “folding stability dG” value of the first is higher: 2.21 kcal/mol for the first, 1.43 kcal/mol for the second.

Compared with KKVTINGVEIKFNNPEEAVKFALELAKRSNLRIEFHGDQIKIE [L29S], KKVTINGVEIKFNNPEEAVKFALELAKRQNLRIEFHGDQIKIE [L29Q] is higher in “folding stability dG” value: 1.55 kcal/mol for the first, 1.73 kcal/mol for the second.

First: KKVTINGVEIKFNNPEEAVKFALELAKRMNLRIEFHGDQIKIE [L29M]
Second: KKVTINGVEIKFNNPEEAVKFALELAKRCNLRIEFHGDQIKIE [L29C]
The “folding stability dG” value of the first is lower: 2.38 kcal/mol for the first, 3.71 kcal/mol for the second.

Going from KKVTINGVEIKFNNPEEAVKFALELAKRFNLRIEFHGDQIKIE [L29F] to KKVTINGVEIKFNNPEEAVKFALELAKRWNLRIEFHGDQIKIE [L29W], the “folding stability dG” value falls from 2.65 kcal/mol to 2.43 kcal/mol.

Compared with KKVTINGVEIKFNNPEEAVKFALELAKRPNLRIEFHGDQIKIE [L29P], KKVTINGVEIKFNNPEEAVKFALELAKRNNLRIEFHGDQIKIE [L29N] is higher in “folding stability dG” value: 1.52 kcal/mol for the first, 1.72 kcal/mol for the second.

Compared with KKVTINGVEIKFNNPEEAVKFALELAKRKNLRIEFHGDQIKIE [L29K], KKVTINGVEIKFNNPEEAVKFALELAKRINLRIEFHGDQIKIE [L29I] is higher in “folding stability dG” value: 1.6 kcal/mol for the first, 1.9 kcal/mol for the second.

First: KKVTINGVEIKFNNPEEAVKFALELAKRDNLRIEFHGDQIKIE [L29D]
Second: KKVTINGVEIKFNNPEEAVKFALELAKRANLRIEFHGDQIKIE [L29A]
The “folding stability dG” value of the first is lower: 1.29 kcal/mol for the first, 1.74 kcal/mol for the second.

Compared with KKVTINGVEIKFNNPEEAVKFALELAKRTNLRIEFHGDQIKIE [L29T], KKVTINGVEIKFNNPEEAVKFALELAKRYNLRIEFHGDQIKIE [L29Y] is higher in “folding stability dG” value: 1.61 kcal/mol for the first, 2.67 kcal/mol for the second.

In the case of KKVTINGVEIKFNNPEEAVKFALELAKRLQLRIEFHGDQIKIE [N30Q], the “folding stability dG” value is reported as 2.38 kcal/mol.
